The text below walks through data of publication PMC10615203, “The 14-3-3 protein OsGF14f interacts with OsbZIP23 and enhances its activity to confer osmotic stress tolerance in rice”.

The target of one data set is T1, GST-OsbZIP23 (Oryza sativa, UniProt Q6Z312).
T1 sequence: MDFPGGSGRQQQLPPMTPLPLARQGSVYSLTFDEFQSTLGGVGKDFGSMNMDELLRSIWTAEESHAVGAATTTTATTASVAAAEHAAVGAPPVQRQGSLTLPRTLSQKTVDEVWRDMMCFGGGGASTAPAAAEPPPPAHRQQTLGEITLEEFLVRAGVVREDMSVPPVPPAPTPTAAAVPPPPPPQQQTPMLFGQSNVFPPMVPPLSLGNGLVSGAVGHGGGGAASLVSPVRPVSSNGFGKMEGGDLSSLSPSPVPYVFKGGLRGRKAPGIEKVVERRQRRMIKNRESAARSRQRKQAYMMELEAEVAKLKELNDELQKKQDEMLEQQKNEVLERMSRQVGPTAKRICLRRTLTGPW
Nature of the data set: EMSA; EMSA kit (Viagene) binding buffer (composition not given), room temperature, 20 min; 6% native PAGE. As to conditions: protein: recombinant; tags: GST (N-terminal, pGEX-4T-3); chain copies: 2; label: 5' biotin; blunt. On the technique in general: A gel shift assay detects complexes by their altered migration in electrophoresis.

Another data set addresses T2, GST-OsGF14f (Oryza sativa, UniProt Q06967 1-260).
T2 sequence: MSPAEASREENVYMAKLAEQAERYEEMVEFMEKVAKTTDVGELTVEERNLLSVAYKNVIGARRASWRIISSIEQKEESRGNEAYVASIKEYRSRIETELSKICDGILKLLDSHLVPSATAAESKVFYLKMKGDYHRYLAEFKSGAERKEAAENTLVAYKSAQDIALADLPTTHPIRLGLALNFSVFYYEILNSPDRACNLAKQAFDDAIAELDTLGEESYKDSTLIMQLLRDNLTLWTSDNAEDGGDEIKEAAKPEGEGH
The data set is described as above. The following applies: protein: recombinant; tags: GST (N-terminal, pGEX-4T-3); chain copies: 2; label: 5' biotin; blunt.

B1: OsGF14f promoter probe (dsDNA)
DNA 1: TGGCGCCTTGCCACGTGCCCCCTCCCT
DNA 2: AGGGAGGGGGCACGTGGCAAGGCGCCA
As for B1, in the data set with GST-OsbZIP23, the binding result is given as “binds”.

B2: OsLEA3-2 promoter probe P1 (dsDNA)
DNA 1: ACCCGAGGCACACGTGTCCACCTCACCGGGGCACGTGTCGCGCCGT
DNA 2: ACGGCGCGACACGTGCCCCGGTGAGGTGGACACGTGTGCCTCGGGT
For B2, the figures for the binding result with GST-OsGF14f and with GST-OsbZIP23 were “no binding” and “binds”, respectively.
